Measured values: patent US20200291112A1

Target: Human GPA33 (Novoprotein), recombinant protein immobilized on CM5 chips (human) (UniProt Q99795)
Assay: SPR (Biacore T100), GPA33 recombinant protein immobilized on CM5 chip, antibody flowed over

Human GPA33 (Novoprotein), recombinant protein immobilized on CM5 chips (human), sequence (Q99795 22-235 limits assumed): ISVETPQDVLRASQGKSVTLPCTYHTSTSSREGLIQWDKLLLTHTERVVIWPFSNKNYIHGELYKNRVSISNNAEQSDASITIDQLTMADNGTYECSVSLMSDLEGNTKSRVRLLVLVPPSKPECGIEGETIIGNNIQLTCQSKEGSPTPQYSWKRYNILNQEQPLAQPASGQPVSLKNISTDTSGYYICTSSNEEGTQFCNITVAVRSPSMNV

Kd: 1.59 nM
koff: 0.00294 s⁻¹
kon: 1.85e+06 M⁻¹ s⁻¹
Substance: hA33-mC825 BsAb (original humanized hA33 in hA33-mC825 bispecific format, Cheal et al. 2016) (bispecific antibody)
